# Experiments:
# Assay in all cases: BLI; virus immobilised on APS probe (Gator Prime), PBS as running buffer; three concentrations (serial dilutions) of RDTfR in PBST (PBS, 0.05% Tween-20) applied; global fit, 1:1 binding model
# [1] = molecular target: rRDPV-16 virus (rescued from the infectious cDNA clone pRDPV-16 of raccoon dog parvovirus strain RDPV/CL/2016), capsid of VP2 (raccoon dog parvovirus, strain RDPV/CL/2016)
# [2] = molecular target: wild-type raccoon dog parvovirus strain RDPV/CL/2016, capsid of VP2 (raccoon dog parvovirus, strain RDPV/CL/2016)
# [3] = molecular target: wild-type raccoon dog parvovirus strain RDPV/FLD/2010, capsid of VP2 (raccoon dog parvovirus, strain RDPV/FLD/2010)
substance,measurement,setting,value
"raccoon dog transferrin receptor ectodomain (recombinant RDTfR, from residue 121, C-terminal 6x His)",Kd,[1],56.1 nM
same,koff,[1],0.00306 s⁻¹
same,kon,[1],54500 M⁻¹ s⁻¹
same,Kd,[2],81.1 nM
same,Kd,[3],103 nM

# Reference: article PMC12548415
